Measured values reported in publication PMC4946999 (ACS chemical biology, 2016).
Each block holds one molecule with its values, some of them ahead of it.

What was measured:
[1] = target: FITC-labeled PIASγ peptide derived from the essential PIASγ LXXLL motif; assay: fluorescence polarisation
SEC = target: the molecule itself; assay: SEC

Kd [1]: 3.5 µM
Molecule: Nurr1 ligand-binding domain (LBD) (from UniProt P43354 328-598) (domain or fragment)

B1: Nurr1 ligand-binding domain (LBD) (domain or fragment)
chain: MVKEVVRTDSLKGRRGRLPSKPKSPQEPSPPSPPVSLISALVRAHVDSNPAMTSLDYSRFQANPDYQMSGDDTQHIQQFYDLLTGSMEIIRGWAEKIPGFADLPKADQDLLFESAFLELFVLRLAYRSNPVEGKLIFCNGVVLHRLQCVRGFGEWIDSIVEFSSNLQNMNIDISAFSCIAALAMVTERHGLKEPKRVEELQNKIVNCLKDHVTFNNGGLNRPNYLSKLLGKLPELRTLCTQGLQRIFYLKLEDLVPPPAIIDKLFLDTLPF
stoichiometry N (SEC): 2
